Source: patent US20190177366A1 (published 2019)
Bridge positions count the residues as written; N and C are the ends. Square brackets hold non-standard residues; d marks the D form.

Target: T1, His-tagged, full-length PCSK9 (human, UniProt A8T644 31-152; Q8NBP7 153-692)
T1 construct: Target protein of the PCSK9/EGF(A) TR-FRET assay (10 nM); also called His-PCSK9; proprotein convertase subtilisin/kexin type 9
Assay: TR-FRET competition; competitor EGF(A)-Fc on His-PCSK9

T1 sequence (A8T644 31-152 limits assumed, chain 1 of 2): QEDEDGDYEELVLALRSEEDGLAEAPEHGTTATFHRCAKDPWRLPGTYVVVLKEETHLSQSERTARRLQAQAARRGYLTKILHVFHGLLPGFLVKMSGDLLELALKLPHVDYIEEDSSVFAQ
T1 sequence (A8T644 other isoform, or with tags, fused parts or gaps limits assumed, chain 2 of 2): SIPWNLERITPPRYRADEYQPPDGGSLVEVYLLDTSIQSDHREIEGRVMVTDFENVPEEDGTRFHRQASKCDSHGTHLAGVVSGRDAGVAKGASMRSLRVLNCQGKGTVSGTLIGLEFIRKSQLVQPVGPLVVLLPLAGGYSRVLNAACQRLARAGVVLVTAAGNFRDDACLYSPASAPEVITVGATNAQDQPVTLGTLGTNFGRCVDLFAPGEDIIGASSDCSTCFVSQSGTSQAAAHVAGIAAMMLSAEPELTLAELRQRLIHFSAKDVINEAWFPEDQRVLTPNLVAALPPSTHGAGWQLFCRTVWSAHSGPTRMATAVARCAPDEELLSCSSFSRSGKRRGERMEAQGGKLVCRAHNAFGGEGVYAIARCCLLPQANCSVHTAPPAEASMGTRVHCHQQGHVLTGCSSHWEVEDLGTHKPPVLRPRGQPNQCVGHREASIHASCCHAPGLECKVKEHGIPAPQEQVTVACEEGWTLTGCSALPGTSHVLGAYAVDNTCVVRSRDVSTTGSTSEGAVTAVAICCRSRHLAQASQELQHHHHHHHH

B1: Compound 100 (peptide)
peptide: Ac-CRLPWNLQRIG[dL]PC-NH2
modifications: disulfide 1-14
SMILES: CC[C@H](C)[C@@H]1NC(=O)[C@H](CCCNC(=N)N)NC(=O)[C@H](CCC(N)=O)NC(=O)[C@H](CC(C)C)NC(=O)[C@H](CC(N)=O)NC(=O)[C@H](Cc2c[nH]c3ccccc23)NC(=O)[C@@H]2CCCN2C(=O)[C@H](CC(C)C)NC(=O)[C@H](CCCNC(=N)N)NC(=O)[C@@H](NC(C)=O)CSSC[C@@H](C(N)=O)NC(=O)[C@@H]2CCCN2C(=O)[C@@H](CC(C)C)NC(=O)CNC1=O
B1 gave an IC50 greater than 50 µM.

B2: Compound 99 (peptide)
peptide: Ac-CRLPWNLQRIGL[dP]C-NH2
modifications: disulfide 1-14
SMILES: CC[C@H](C)[C@@H]1NC(=O)[C@H](CCCNC(=N)N)NC(=O)[C@H](CCC(N)=O)NC(=O)[C@H](CC(C)C)NC(=O)[C@H](CC(N)=O)NC(=O)[C@H](Cc2c[nH]c3ccccc23)NC(=O)[C@@H]2CCCN2C(=O)[C@H](CC(C)C)NC(=O)[C@H](CCCNC(=N)N)NC(=O)[C@@H](NC(C)=O)CSSC[C@@H](C(N)=O)NC(=O)[C@H]2CCCN2C(=O)[C@H](CC(C)C)NC(=O)CNC1=O
B2 gave an IC50 greater than 50 µM.

B3: Compound 70 (peptide)
peptide: Ac-CRLPWNLQRIALPC-NH2
modifications: disulfide 1-14
SMILES: CC[C@H](C)[C@@H]1NC(=O)[C@H](CCCNC(=N)N)NC(=O)[C@H](CCC(N)=O)NC(=O)[C@H](CC(C)C)NC(=O)[C@H](CC(N)=O)NC(=O)[C@H](Cc2c[nH]c3ccccc23)NC(=O)[C@@H]2CCCN2C(=O)[C@H](CC(C)C)NC(=O)[C@H](CCCNC(=N)N)NC(=O)[C@@H](NC(C)=O)CSSC[C@@H](C(N)=O)NC(=O)[C@@H]2CCCN2C(=O)[C@H](CC(C)C)NC(=O)[C@H](C)NC1=O
B3 showed an IC50 greater than 50 µM.

B4: Compound 74 (peptide)
peptide: Ac-CRLPWNAQRIGLPC-NH2
modifications: disulfide 1-14
SMILES: CC[C@H](C)[C@@H]1NC(=O)[C@H](CCCNC(=N)N)NC(=O)[C@H](CCC(N)=O)NC(=O)[C@H](C)NC(=O)[C@H](CC(N)=O)NC(=O)[C@H](Cc2c[nH]c3ccccc23)NC(=O)[C@@H]2CCCN2C(=O)[C@H](CC(C)C)NC(=O)[C@H](CCCNC(=N)N)NC(=O)[C@@H](NC(C)=O)CSSC[C@@H](C(N)=O)NC(=O)[C@@H]2CCCN2C(=O)[C@H](CC(C)C)NC(=O)CNC1=O
B4 was tested, and the IC50 was greater than 50 µM.

B5: Compound 81 (peptide)
peptide: Ac-CRLPWNLQRIGGGC-NH2
modifications: disulfide 1-14
SMILES: CC[C@H](C)[C@@H]1NC(=O)[C@H](CCCNC(=N)N)NC(=O)[C@H](CCC(N)=O)NC(=O)[C@H](CC(C)C)NC(=O)[C@H](CC(N)=O)NC(=O)[C@H](Cc2c[nH]c3ccccc23)NC(=O)[C@@H]2CCCN2C(=O)[C@H](CC(C)C)NC(=O)[C@H](CCCNC(=N)N)NC(=O)[C@@H](NC(C)=O)CSSC[C@@H](C(N)=O)NC(=O)CNC(=O)CNC(=O)CNC1=O
Work on B5 yielded an IC50 greater than 50 µM.

B6: Compound 72 (peptide)
peptide: Ac-CRLPWNLQAIGLPC-NH2
modifications: disulfide 1-14
SMILES: CC[C@H](C)[C@@H]1NC(=O)[C@H](C)NC(=O)[C@H](CCC(N)=O)NC(=O)[C@H](CC(C)C)NC(=O)[C@H](CC(N)=O)NC(=O)[C@H](Cc2c[nH]c3ccccc23)NC(=O)[C@@H]2CCCN2C(=O)[C@H](CC(C)C)NC(=O)[C@H](CCCNC(=N)N)NC(=O)[C@@H](NC(C)=O)CSSC[C@@H](C(N)=O)NC(=O)[C@@H]2CCCN2C(=O)[C@H](CC(C)C)NC(=O)CNC1=O
For B6, the IC50 was greater than 50 µM.

B7: Compound 80 (peptide)
peptide: Ac-CRLPWNLQRIGLGC-NH2
modifications: disulfide 1-14
SMILES: CC[C@H](C)[C@@H]1NC(=O)[C@H](CCCNC(=N)N)NC(=O)[C@H](CCC(N)=O)NC(=O)[C@H](CC(C)C)NC(=O)[C@H](CC(N)=O)NC(=O)[C@H](Cc2c[nH]c3ccccc23)NC(=O)[C@@H]2CCCN2C(=O)[C@H](CC(C)C)NC(=O)[C@H](CCCNC(=N)N)NC(=O)[C@@H](NC(C)=O)CSSC[C@@H](C(N)=O)NC(=O)CNC(=O)[C@H](CC(C)C)NC(=O)CNC1=O
With B7 the IC50 was greater than 50 µM.

B8: Compound 77 (peptide)
peptide: Ac-CRLAWNLQRIGLPC-NH2
modifications: disulfide 1-14
SMILES: CC[C@H](C)[C@@H]1NC(=O)[C@H](CCCNC(=N)N)NC(=O)[C@H](CCC(N)=O)NC(=O)[C@H](CC(C)C)NC(=O)[C@H](CC(N)=O)NC(=O)[C@H](Cc2c[nH]c3ccccc23)NC(=O)[C@H](C)NC(=O)[C@H](CC(C)C)NC(=O)[C@H](CCCNC(=N)N)NC(=O)[C@@H](NC(C)=O)CSSC[C@@H](C(N)=O)NC(=O)[C@@H]2CCCN2C(=O)[C@H](CC(C)C)NC(=O)CNC1=O
Binder B8 has an IC50 greater than 50 µM.

B9: Compound 75 (peptide)
peptide: Ac-CRLPWALQRIGLPC-NH2
modifications: disulfide 1-14
SMILES: CC[C@H](C)[C@@H]1NC(=O)[C@H](CCCNC(=N)N)NC(=O)[C@H](CCC(N)=O)NC(=O)[C@H](CC(C)C)NC(=O)[C@H](C)NC(=O)[C@H](Cc2c[nH]c3ccccc23)NC(=O)[C@@H]2CCCN2C(=O)[C@H](CC(C)C)NC(=O)[C@H](CCCNC(=N)N)NC(=O)[C@@H](NC(C)=O)CSSC[C@@H](C(N)=O)NC(=O)[C@@H]2CCCN2C(=O)[C@H](CC(C)C)NC(=O)CNC1=O
Binder B9 has an IC50 greater than 50 µM.

B10: Compound 73 (peptide)
peptide: Ac-CRLPWNLARIGLPC-NH2
modifications: disulfide 1-14
SMILES: CC[C@H](C)[C@@H]1NC(=O)[C@H](CCCNC(=N)N)NC(=O)[C@H](C)NC(=O)[C@H](CC(C)C)NC(=O)[C@H](CC(N)=O)NC(=O)[C@H](Cc2c[nH]c3ccccc23)NC(=O)[C@@H]2CCCN2C(=O)[C@H](CC(C)C)NC(=O)[C@H](CCCNC(=N)N)NC(=O)[C@@H](NC(C)=O)CSSC[C@@H](C(N)=O)NC(=O)[C@@H]2CCCN2C(=O)[C@H](CC(C)C)NC(=O)CNC1=O
Binder B10 has an IC50 greater than 50 µM.

B11: Compound 76 (peptide)
peptide: Ac-CRLPANLQRIGLPC-NH2
modifications: disulfide 1-14
SMILES: CC[C@H](C)[C@@H]1NC(=O)[C@H](CCCNC(=N)N)NC(=O)[C@H](CCC(N)=O)NC(=O)[C@H](CC(C)C)NC(=O)[C@H](CC(N)=O)NC(=O)[C@H](C)NC(=O)[C@@H]2CCCN2C(=O)[C@H](CC(C)C)NC(=O)[C@H](CCCNC(=N)N)NC(=O)[C@@H](NC(C)=O)CSSC[C@@H](C(N)=O)NC(=O)[C@@H]2CCCN2C(=O)[C@H](CC(C)C)NC(=O)CNC1=O
Work on B11 yielded an IC50 greater than 50 µM.

B12: Compound 79 (peptide)
peptide: Ac-CALPWNLQRIGLPC-NH2
modifications: disulfide 1-14
SMILES: CC[C@H](C)[C@@H]1NC(=O)[C@H](CCCNC(=N)N)NC(=O)[C@H](CCC(N)=O)NC(=O)[C@H](CC(C)C)NC(=O)[C@H](CC(N)=O)NC(=O)[C@H](Cc2c[nH]c3ccccc23)NC(=O)[C@@H]2CCCN2C(=O)[C@H](CC(C)C)NC(=O)[C@H](C)NC(=O)[C@@H](NC(C)=O)CSSC[C@@H](C(N)=O)NC(=O)[C@@H]2CCCN2C(=O)[C@H](CC(C)C)NC(=O)CNC1=O
B12 showed an IC50 greater than 50 µM.

B13: Compound 71 (peptide)
peptide: Ac-CRLPWNLQRAGLPC-NH2
modifications: disulfide 1-14
SMILES: CC(=O)N[C@H]1CSSC[C@@H](C(N)=O)NC(=O)[C@@H]2CCCN2C(=O)[C@H](CC(C)C)NC(=O)CNC(=O)[C@H](C)NC(=O)[C@H](CCCNC(=N)N)NC(=O)[C@H](CCC(N)=O)NC(=O)[C@H](CC(C)C)NC(=O)[C@H](CC(N)=O)NC(=O)[C@H](Cc2c[nH]c3ccccc23)NC(=O)[C@@H]2CCCN2C(=O)[C@H](CC(C)C)NC(=O)[C@H](CCCNC(=N)N)NC1=O
For B13, the IC50 was greater than 50 µM.

B14: Compound 78 (peptide)
peptide: Ac-CRAPWNLQRIGLPC-NH2
modifications: disulfide 1-14
SMILES: CC[C@H](C)[C@@H]1NC(=O)[C@H](CCCNC(=N)N)NC(=O)[C@H](CCC(N)=O)NC(=O)[C@H](CC(C)C)NC(=O)[C@H](CC(N)=O)NC(=O)[C@H](Cc2c[nH]c3ccccc23)NC(=O)[C@@H]2CCCN2C(=O)[C@H](C)NC(=O)[C@H](CCCNC(=N)N)NC(=O)[C@@H](NC(C)=O)CSSC[C@@H](C(N)=O)NC(=O)[C@@H]2CCCN2C(=O)[C@H](CC(C)C)NC(=O)CNC1=O
In the case of B14, the IC50 is reported as greater than 50 µM.

B15: Compound 103 (peptide)
peptide: Ac-CRLPWNL[dQ]RIGLPC-NH2
modifications: disulfide 1-14
SMILES: CC[C@H](C)[C@@H]1NC(=O)[C@H](CCCNC(=N)N)NC(=O)[C@@H](CCC(N)=O)NC(=O)[C@H](CC(C)C)NC(=O)[C@H](CC(N)=O)NC(=O)[C@H](Cc2c[nH]c3ccccc23)NC(=O)[C@@H]2CCCN2C(=O)[C@H](CC(C)C)NC(=O)[C@H](CCCNC(=N)N)NC(=O)[C@@H](NC(C)=O)CSSC[C@@H](C(N)=O)NC(=O)[C@@H]2CCCN2C(=O)[C@H](CC(C)C)NC(=O)CNC1=O
notes: also called Ac-CRLPWNLqRIGLPC-NH2
Binder B15 has an IC50 greater than 50 µM.

B16: Compound 101 (peptide)
peptide: Ac-CRLPWNLQR[dI]GLPC-NH2
modifications: disulfide 1-14
SMILES: CC[C@@H](C)[C@H]1NC(=O)[C@H](CCCNC(=N)N)NC(=O)[C@H](CCC(N)=O)NC(=O)[C@H](CC(C)C)NC(=O)[C@H](CC(N)=O)NC(=O)[C@H](Cc2c[nH]c3ccccc23)NC(=O)[C@@H]2CCCN2C(=O)[C@H](CC(C)C)NC(=O)[C@H](CCCNC(=N)N)NC(=O)[C@@H](NC(C)=O)CSSC[C@@H](C(N)=O)NC(=O)[C@@H]2CCCN2C(=O)[C@H](CC(C)C)NC(=O)CNC1=O
In the case of B16, the IC50 is reported as greater than 50 µM.

B17: Compound 102 (peptide)
peptide: Ac-CRLPWNLQ[dR]IGLPC-NH2
modifications: disulfide 1-14
SMILES: CC[C@H](C)[C@@H]1NC(=O)[C@@H](CCCNC(=N)N)NC(=O)[C@H](CCC(N)=O)NC(=O)[C@H](CC(C)C)NC(=O)[C@H](CC(N)=O)NC(=O)[C@H](Cc2c[nH]c3ccccc23)NC(=O)[C@@H]2CCCN2C(=O)[C@H](CC(C)C)NC(=O)[C@H](CCCNC(=N)N)NC(=O)[C@@H](NC(C)=O)CSSC[C@@H](C(N)=O)NC(=O)[C@@H]2CCCN2C(=O)[C@H](CC(C)C)NC(=O)CNC1=O
For B17, the IC50 was greater than 50 µM.
